Data set [1] deals with the molecule itself. In words: pulse gradient diffusion NMR + NMR spin relaxation.
Data set [2] concerns the molecule itself. In words: NMR residual dipolar couplings.

B1: wild type CCL5 (RANTES) (natural protein, UniProt P13501 24-91, looked up)
chain: SPYSSDTTPCCFAYIARPLPRAHIKEYFYTSGKCSNPAVVFVTRKNRQVCANPEKKWVREYINSLEMS
What is called stoichiometry N is a count of units in the complex or per binding partner. For B1, the “stoichiometry N” value in data set [1] was determined as 4.

B2: CCL5 E66S mutant (natural protein, UniProt P13501 24-91, looked up)
chain: SPYSSDTTPCCFAYIARPLPRAHIKEYFYTSGKCSNPAVVFVTRKNRQVCANPEKKWVREYINSLSMS
Consider B2, for which, in data set [2], the binding result is given as “binds”.
